Measured values as given in patent publication US7022489 (dated 2006).

T1: human GALR3 (human)
T1 chain: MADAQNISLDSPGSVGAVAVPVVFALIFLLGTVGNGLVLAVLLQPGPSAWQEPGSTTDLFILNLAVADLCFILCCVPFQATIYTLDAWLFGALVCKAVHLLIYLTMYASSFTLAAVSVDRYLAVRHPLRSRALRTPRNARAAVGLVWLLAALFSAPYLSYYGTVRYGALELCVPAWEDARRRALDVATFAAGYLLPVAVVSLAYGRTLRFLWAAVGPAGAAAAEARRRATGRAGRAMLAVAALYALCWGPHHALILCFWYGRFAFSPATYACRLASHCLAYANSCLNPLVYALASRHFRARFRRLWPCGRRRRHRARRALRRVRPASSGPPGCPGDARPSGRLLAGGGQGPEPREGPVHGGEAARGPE

T2: rat GALR3 (rat)
T2 chain: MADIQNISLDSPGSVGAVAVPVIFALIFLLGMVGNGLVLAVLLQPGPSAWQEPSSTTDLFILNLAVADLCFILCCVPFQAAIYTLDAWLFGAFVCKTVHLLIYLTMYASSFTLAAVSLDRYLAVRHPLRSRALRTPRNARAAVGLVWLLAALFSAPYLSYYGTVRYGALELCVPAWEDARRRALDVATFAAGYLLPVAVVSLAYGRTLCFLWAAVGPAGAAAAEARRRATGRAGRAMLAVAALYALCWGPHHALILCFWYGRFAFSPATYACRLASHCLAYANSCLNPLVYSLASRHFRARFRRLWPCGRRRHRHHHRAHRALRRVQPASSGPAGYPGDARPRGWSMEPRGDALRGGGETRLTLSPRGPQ

B1: D-Trp2-galanin 1-29 (protein)
chain: KRGWTLNSAGYLLGPHAIDNHRSFHDKYGLAGKRELEPEDEARPGGFDRLQSEDKAIRTIMEFLAFLHLKEAGALGRLPGLPSAASSEDAGQS
modifications: D-Trp at position 2, mature numbering
B2: porcine galanin (protein)
chain: B1 chain

What was measured:
human GALR3 [1] = biological target: T1, human GALR3; assay: competition
rat GALR3 [2] = biological target: T2, rat GALR3; assay: competition
rat GALR3 [3] = biological target: T2, rat GALR3; assay: competition, 293-rGalR3-105
rat GALR3 [4] = biological target: T2, rat GALR3; assay: competition, COS-7
rat GALR3 [5] = biological target: T2, rat GALR3; assay: competition
rat GALR3 [6] = biological target: T2, rat GALR3; assay: other, 125I-galanin saturation, COS-7 membranes
human GALR3 [7] = biological target: T1, human GALR3; assay: other, 125I-galanin saturation, L-hGalR3-228 membranes

Binder	Ki (human GALR3 [1])	Ki (rat GALR3 [2])	Ki (rat GALR3 [3])	Ki (rat GALR3 [4])	Ki (rat GALR3 [5])	Kd (rat GALR3 [6])	Kd (human GALR3 [7])
B1	> 1 µM	> 1 µM	> 1 µM	> 1 µM	> 1 µM		
B2						0.00034 µM	0.00257 µM
